Results reported in patent US6040160A, “Method of producing L-lysine by fermentation” (Ajinomoto Co., Inc., priority 1993, dated 2000).

B1: wild type DDPS: wild type dihydrodipicolinate synthase of E. coli (dapA product) (protein, UniProt P0A6L2 1-292, looked up)
4-hydroxy-tetrahydrodipicolina …: MFTGSIVAIVTPMDEKGNVCRASLKKLIDYHVASGTSAIVSVGTTGESATLNHDEHADVVMMTLDLADGRIPVIAGTGANATAEAISLTQRFNDSGIVGCLTVTPYYNRPSQEGLYQHFKAIAEHTDLPQILYNVPSRTGCDLLPETVGRLAKVKNIIGIKEATGNLTRVNQIKELVSDDFVLLSGDDASALDFMQLGGHGVISVTANVAARDMAQMCKLAAEGHFAEARVINQRLMPLHNKLFVEPNPIPVKWACKELGLVATDTLRLPMTPITDSGRETVRAALKHAGLL
B2: pdapAS24 (protein)
chain: MFTGSIVAIVTPMDEKGNVCRASLKKLIDYHVASGTSAIVSVGTTGESATLNHDEHADVVMMTLDLADGRIPVIAGTGANATAEAISLTQRFNDSGIVGCLTVTPYYNRPSQEGLYQYFKAIAEHTDLPQILYNVPSRTGCDLLPETVGRLAKVKNIIGIKEATGNLTRVNQIKELVSDDFVLLSGDDASALDFMQLGGHGVISVTTNVAARDMAQMCKLAAEEHFAEARVINQRLMPLHNKLFVEPNPIPVKWACKELGLVATDTLRLPMTPITDSGRETVRAALKHAGLL
B3: Wild type: wild type aspartokinase III (AKIII) of E. coli encoded by lysC on pLYSC1 (protein, UniProt P08660 2-449, looked up)
Lysine-sensitive …: SEIVVSKFGGTSVADFDAMNRSADIVLSDANVRLVVLSASAGITNLLVALAEGLEPGERFEKLDAIRNIQFAILERLRYPNVIREEIERLLENITVLAEAAALATSPALTDELVSHGELMSTLLFVEILRERDVQAQWFDVRKVMRTNDRFGRAEPDIAALAELAALQLLPRLNEGLVITQGFIGSENKGRTTTLGRGGSDYTAALLAEALHASRVDIWTDVPGIYTTDPRVVSAAKRIDEIAFAEAAEMATFGAKVLHPATLLPAVRSDIPVFVGSSKDPRAGGTLVCNKTENPPLFRALALRRNQTLLTLHSLNMLHSRGFLAEVFGILARHNISVDLITTSEVSVALTLDTTGSTSTGDTLLTQSLLMELSALCRVEVEEGLALVALIGNDLSKACGVGKEVFGVLEPFNIRMICYGASSHNLCFLVPGEDAEQVVQKLHSNLFE

Key:
Type in all cases: biochemical, E. coli
DDPS = DDPS enzyme activity and inhibition by L-lysine, cell-free extract of JE7627 transformants
Description: Mutant pdapA2's were recovered from the 36 strains described above. A dapA-deficient strain, JE7627 was transformed with them and the wild type pdapA2, respectively. A cell-free extract was prepared from each of the transformed strains, and the enzyme activity of DDPS was measured.
(§1) The cell-free extract (crude enzyme solution) was prepared as follows. A transformed strain was cultivated in a 2×TY medium (1.6% Bacto trypton, 1% Yeast extract, 0.5% NaCl), and collected at an optical density at 660 nm (OD660) of about 0.8. A cell pellet was washed with 0.85% NaCl under a condition of 0° C., and suspended in 20 mM potassium phosphate buffer (pH 7.5) containing 400 mM KCl. The cells were ruptured by sonication (0° C., 200 W, 10 minutes). A ruptured cell solution was centrifuged at 33 krpm for 1 hour under a condition of 0° C. to obtain a supernatant to which ammonium sulfate was added to give 80% saturation to be stored at 0° C. overnight followed by centrifugation. A pellet was dissolved in 20 mM potassium phosphate buffer (pH 7.5)-400 mM KCl.
(§2) The enzyme activity of DDPS was measured in accordance with a method of Yugari et al. (Yugari, Y. and Gilvarg, C., J. Biol. Chem., 240, 4710 (1962)). Namely, the absorbance of a reaction solution having the following composition was measured at 37° C. with a spectrophotometer at a wavelength of 270 nm in a time-dependent manner. And generated dihydrodipicolinate was measured. Sodium pyruvate was removed from the reaction system to be used as a blank.
Various concentrations of L-lysine were added to the enzyme reaction solution during measurement of the enzyme activity of DDPS, and the degree of inhibition by L-lysine was examined.

[1] = system: DDPS (dihydrodipicolinate synthase); assay: DDPS activity of crude enzyme solutions from W3110(tyrA) strains and inhibition by L-lysine
Description: as §1, with “A pellet was dissolved in 20 mM potassium phosphate buffer (pH 7.5)-400 mM KCl.” left out
as §2, with “Sodium pyruvate was removed from the reaction system to be used as a blank.” left out
Crude enzyme solutions were prepared from W3110(tyrA), W3110(tyrA)/pdapA and W3110(tyrA)/pdapA* in the same manner as in Example 1, the DDPS (dihydrodipicolinate synthase) activity was measured, and the degree of inhibition of the DDPS activity by L-lysine was examined.

AKIII = AKIII enzyme activity and inhibition by L-lysine, cell-free extract of GT3 transformants
Source text: No. 24, No. 43, No. 48, No. 60, No. 80, No. 117, No. 126, No. 149, No. 150, No. 156, No. 158, No. 167, No. 169 and No. 172 were selected as representative strains of the aforementioned 14 groups. Mutant plasmids derived from pLYSC1 were recovered from each of them, and designated as pLYSC1*24, pLYSC1*43, pLYSC1*48, pLYSC1*60, pLYSC1*80, pLYSC1*117, pLYSC1*126, pLYSC1*149, pLYSC1*150, pLYSC1*156, pLYSC1*158, pLYSC1*167, pLYSC1*169 and pLYSC1*172, respectively. An AK completely deficient strain GT3 was transformed with them and the wild type pLYSC1. A cell-free extract was prepared from each of transformed strains, and the enzyme activity of AKIII was measured.
The cell-free extract (crude enzyme solution) was prepared as follows. A transformed strain was cultivated in a 2×TY medium, and collected at an OD660 of about 0.8. Cells were washed with 0.02 M KH2 PO4 (pH 6.75)-0.03 M β-mercaptoethanol under a condition of 0° C., and the cells were ruptured by sonication (0° C., 100 W, 30 minutes×4). A ruptured cell solution was centrifuged at 33 krpm for 1 hour under a condition of 0° C. to obtain a supernatant,to which ammonium sulfate was added to give 80% saturation. After centrifugation, a pellet was dissolved in 0.02 M KH2 PO4 (pH 6.75)-0.03 M β-mercaptoethanol, and stored at 0° C. overnight.
The enzyme activity of AKIII was measured in accordance with a method of Stadtman et al. (Stadtman, E. R., Cohen, G. N., LeBras, G., and Robichon-Szulmajster, H., J. Biol. Chem., 236, 2033 (1961)). Namely, a reaction solution having the following composition was incubated at 27° C. for 45 minutes, and an FeCl3 solution (2.8 N HCl 0.4 ml +12% TCA 0.4 ml +5% FeCl3. 6H2 O/0.1 N HCl 0.7 ml) was added to develop a color, which was centrifuged followed by measurement of absorbance of a supernatant at 540 nm. The activity was indicated by an amount of hydroxamic acid generated per minute (1 U=1 μmol/min). The molar absorption coefficient was 600. Potassium aspartate was removed from the reaction solution to be used as a blank.
Various concentrations of L-lysine were added to the enzyme reaction solution for measurement of the enzyme activity of AK, and the degree of inhibition by L-lysine was examined.
On the contrary, the mutant AKIII's obtained this time had various degrees of desensitization, however, inhibition by L-lysine was desensitized in all of 14 species. […] The specific activity per total protein, which might be affected by growth situations of cell and preparation of samples, was equal to or more than that of the wild type in almost all cases, in which there was little problem of decrease in activity due to the introduction of mutation (Table 3). […]

[2] = in the presence of 5 mM of L-lysine
[3] = various concentrations of L-lysine, FIG. 2

| Molecule | Inhibition of DDPS by L-lysine (DDPS; [2]) | Inhibition of DDPS by L-lysine (DDPS; [3]) | Specific activity of DDPS as compared with the wild type (DDPS) | Specific activity relative to the wild type enzyme (DDPS) [1] | Inhibition of AKIII by L-lysine (AKIII; 5 mM of L-lysine) | Specific activity (AKIII; 1 U=1 μmol/min hydroxamic acid) | Degree of desensitization of inhibition (AKIII; AK activity in the presence of 100 mM of L-lysine with respect to AK activity in the absence of L-lysine) | Inhibition of AKIII by L-lysine (AKIII; [2]) |
| --- | --- | --- | --- | --- | --- | --- | --- | --- |
| B1 | ~80% | suffered inhibition by L-lysine |  |  |  |  |  |  |
| B2 |  | desensitized | lowered a little | about 1/2 |  |  |  |  |
| B3 |  |  |  |  | about 100% | 0.0247 U/mg protein | 0% | about 100% |
